Measurements published in paper PMC9482650, “Quantitative fragmentomics allow affinity mapping of interactomes” (Nature Communications, 2022).

T1: HTRA4, P83105
T1 sequence (P83105 378-476, limits assumed, looked up): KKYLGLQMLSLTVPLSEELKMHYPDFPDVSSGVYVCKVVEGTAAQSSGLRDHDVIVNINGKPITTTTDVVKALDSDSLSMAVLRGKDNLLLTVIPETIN

T2: GRIP1_2, Q9Y3R0
T2 sequence (Q9Y3R0 145-248, limits assumed, looked up): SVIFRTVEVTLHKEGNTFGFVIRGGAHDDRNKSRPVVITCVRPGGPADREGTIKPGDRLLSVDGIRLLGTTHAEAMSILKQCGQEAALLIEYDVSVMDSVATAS

T3: SNTA1, Q13424
T3 sequence (Q13424 82-180, limits assumed, looked up): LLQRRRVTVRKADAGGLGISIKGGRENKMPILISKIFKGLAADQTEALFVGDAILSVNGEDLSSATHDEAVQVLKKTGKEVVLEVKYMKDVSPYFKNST

T4: MPP2, Q14168
T4 sequence (Q14168 180-250, limits assumed, looked up): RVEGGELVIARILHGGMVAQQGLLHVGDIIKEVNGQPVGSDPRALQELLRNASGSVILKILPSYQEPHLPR

T5: FRMPD1, Q5SYB0
T5 sequence (Q5SYB0 52-145, limits assumed, looked up): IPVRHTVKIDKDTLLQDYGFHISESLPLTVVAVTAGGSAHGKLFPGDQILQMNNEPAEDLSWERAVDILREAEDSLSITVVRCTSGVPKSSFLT

T6: DLG3_1, Q92796
T6 sequence (Q92796 125-227, limits assumed, looked up): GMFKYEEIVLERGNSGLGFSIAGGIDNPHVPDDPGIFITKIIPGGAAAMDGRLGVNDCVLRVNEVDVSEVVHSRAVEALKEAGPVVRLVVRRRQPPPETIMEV

T7: LIN7A, O14910
T7 sequence (O14910 103-200, limits assumed, looked up): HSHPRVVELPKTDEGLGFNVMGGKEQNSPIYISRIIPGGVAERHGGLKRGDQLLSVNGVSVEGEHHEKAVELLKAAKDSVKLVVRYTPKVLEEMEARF

T8: APBA1_1, Q02410
T8 sequence (Q02410 651-752, limits assumed, looked up): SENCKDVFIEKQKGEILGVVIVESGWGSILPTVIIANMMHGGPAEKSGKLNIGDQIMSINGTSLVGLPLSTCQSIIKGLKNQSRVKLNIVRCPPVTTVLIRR

T9: APBA2_2, Q99767
T9 sequence (Q99767 654-744, limits assumed, looked up): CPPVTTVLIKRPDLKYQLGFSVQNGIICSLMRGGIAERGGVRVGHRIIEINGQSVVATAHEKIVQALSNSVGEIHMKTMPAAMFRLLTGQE

T10: DFNB31_3, Q9P202
T10 sequence (Q9P202 811-907, limits assumed, looked up): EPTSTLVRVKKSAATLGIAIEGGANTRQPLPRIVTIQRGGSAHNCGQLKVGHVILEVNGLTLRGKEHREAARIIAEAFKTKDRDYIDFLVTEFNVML

T11: PARD3B_1, Q8TEW8
T11 sequence (Q8TEW8 196-299, limits assumed, looked up): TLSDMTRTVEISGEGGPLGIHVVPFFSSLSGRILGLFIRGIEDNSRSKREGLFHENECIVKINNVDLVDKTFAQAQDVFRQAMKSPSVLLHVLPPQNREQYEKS

T12: DFNB31_2, Q9P202
T12 sequence (Q9P202 274-371, limits assumed, looked up): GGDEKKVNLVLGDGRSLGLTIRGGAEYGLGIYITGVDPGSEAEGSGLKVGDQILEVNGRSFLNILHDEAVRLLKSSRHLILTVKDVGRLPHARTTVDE


Tests used:
Assay in all cases: holdup assay
Set-up in all cases: key: below the threshold = too weak to quantify, mostly under pKd 3.1 to 4
Conditions in all cases: plain residues with an end cap or a label only (N-terminal biotin on a linker: ttds)
HTRA4, P83105 = molecular target: T1, HTRA4, P83105
GRIP1_2, Q9Y3R0 = molecular target: T2, GRIP1_2, Q9Y3R0
DLG2_2, Q15700 = molecular target: DLG2_2, Q15700
DLG2_2, Q15700, sequence (Q15700 189-283): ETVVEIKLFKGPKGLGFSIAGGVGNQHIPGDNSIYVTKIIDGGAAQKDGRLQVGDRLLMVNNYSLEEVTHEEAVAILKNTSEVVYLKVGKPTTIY

SNTA1, Q13424 = molecular target: T3, SNTA1, Q13424
MPP2, Q14168 = molecular target: T4, MPP2, Q14168
FRMPD1, Q5SYB0 = molecular target: T5, FRMPD1, Q5SYB0
MAGI2_4, Q86UL8 = molecular target: MAGI2_4, Q86UL8
MAGI2_4, Q86UL8, sequence (Q86UL8 772-865): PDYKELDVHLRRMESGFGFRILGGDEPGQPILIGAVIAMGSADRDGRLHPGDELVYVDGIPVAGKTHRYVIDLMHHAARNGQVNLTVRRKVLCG

GRASP, Q7Z6J2 = molecular target: GRASP, Q7Z6J2
GRASP, Q7Z6J2, sequence (Q7Z6J2 96-193): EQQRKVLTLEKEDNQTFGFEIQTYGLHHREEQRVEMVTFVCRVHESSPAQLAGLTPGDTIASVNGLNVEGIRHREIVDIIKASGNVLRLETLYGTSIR

HTRA1, Q92743 = molecular target: HTRA1, Q92743
HTRA1, Q92743, sequence (Q92743 360-477): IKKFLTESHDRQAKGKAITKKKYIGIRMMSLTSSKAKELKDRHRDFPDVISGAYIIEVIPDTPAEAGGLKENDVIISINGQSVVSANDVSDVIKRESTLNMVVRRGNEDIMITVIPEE

DLG3_1, Q92796 = molecular target: T6, DLG3_1, Q92796
LIN7A, O14910 = molecular target: T7, LIN7A, O14910
APBA1_1, Q02410 = molecular target: T8, APBA1_1, Q02410
APBA2_2, Q99767 = molecular target: T9, APBA2_2, Q99767
DFNB31_3, Q9P202 = molecular target: T10, DFNB31_3, Q9P202
MAST2, Q6P0Q8 = molecular target: MAST2, Q6P0Q8
MAST2, Q6P0Q8, sequence (Q6P0Q8 1099-1202): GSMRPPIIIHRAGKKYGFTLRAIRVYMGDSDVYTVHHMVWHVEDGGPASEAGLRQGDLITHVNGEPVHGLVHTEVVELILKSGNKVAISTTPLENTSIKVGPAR

MAGI1_1, Q96QZ7 = molecular target: MAGI1_1, Q96QZ7
MAGI1_1, Q96QZ7, sequence (Q96QZ7 1-106): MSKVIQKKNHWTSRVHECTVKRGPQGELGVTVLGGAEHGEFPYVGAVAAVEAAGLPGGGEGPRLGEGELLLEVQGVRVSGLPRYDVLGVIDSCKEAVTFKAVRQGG

LNX1_2, Q8TBB1 = molecular target: LNX1_2, Q8TBB1
LNX1_2, Q8TBB1, sequence (Q8TBB1 371-470): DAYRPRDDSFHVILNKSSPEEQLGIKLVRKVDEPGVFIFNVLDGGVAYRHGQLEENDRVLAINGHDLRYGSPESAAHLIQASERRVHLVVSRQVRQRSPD

GORASP2, Q9H8Y8 = molecular target: GORASP2, Q9H8Y8
PARD3B_1, Q8TEW8 = molecular target: T11, PARD3B_1, Q8TEW8
FRMPD4, Q14CM0 = molecular target: FRMPD4, Q14CM0
FRMPD4, Q14CM0, sequence (Q14CM0 67-160): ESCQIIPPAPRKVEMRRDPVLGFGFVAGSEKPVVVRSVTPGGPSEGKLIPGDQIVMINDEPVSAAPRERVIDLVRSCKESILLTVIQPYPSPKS

MAGI2_6, Q86UL8 = molecular target: MAGI2_6, Q86UL8
MAGI2_6, Q86UL8, sequence (Q86UL8 1141-1229): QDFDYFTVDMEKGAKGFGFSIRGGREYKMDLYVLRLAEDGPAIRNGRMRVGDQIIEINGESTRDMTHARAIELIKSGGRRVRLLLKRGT

DFNB31_2, Q9P202 = molecular target: T12, DFNB31_2, Q9P202
GRIP2_7, Q9C0E4 = molecular target: GRIP2_7, Q9C0E4
GRIP2_7, Q9C0E4, sequence (Q9C0E4 934-1023): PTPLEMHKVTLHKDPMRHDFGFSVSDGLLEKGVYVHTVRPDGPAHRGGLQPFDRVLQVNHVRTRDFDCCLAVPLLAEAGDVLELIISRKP

IL16_3, Q14005 = molecular target: IL16_3, Q14005
IL16_3, Q14005, sequence (Q14005 1107-1207): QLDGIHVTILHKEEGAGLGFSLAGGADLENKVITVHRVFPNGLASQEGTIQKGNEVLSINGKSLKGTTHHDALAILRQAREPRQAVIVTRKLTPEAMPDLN

SCRIB_1, Q14160 = molecular target: SCRIB_1, Q14160
SCRIB_1, Q14160, sequence (Q14160 718-814): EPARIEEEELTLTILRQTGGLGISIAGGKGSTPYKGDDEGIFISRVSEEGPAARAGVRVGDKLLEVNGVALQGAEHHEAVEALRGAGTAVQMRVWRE

Row | pKd (HTRA4, P83105) | pKd (GRIP1_2, Q9Y3R0) | pKd (DLG2_2, Q15700) | pKd (SNTA1, Q13424) | pKd (MPP2, Q14168) | pKd (FRMPD1, Q5SYB0) | pKd (MAGI2_4, Q86UL8) | pKd (GRASP, Q7Z6J2) | pKd (HTRA1, Q92743) | pKd (DLG3_1, Q92796) | pKd (LIN7A, O14910) | pKd (APBA1_1, Q02410) | pKd (APBA2_2, Q99767) | pKd (DFNB31_3, Q9P202) | pKd (MAST2, Q6P0Q8) | pKd (MAGI1_1, Q96QZ7) | pKd (LNX1_2, Q8TBB1) | pKd (GORASP2, Q9H8Y8) | pKd (PARD3B_1, Q8TEW8) | pKd (FRMPD4, Q14CM0) | Binder | other results
1 | below the threshold | below the threshold | below the threshold | 3.79 | below the threshold | below the threshold | below the threshold | below the threshold | below the threshold | below the threshold | below the threshold | below the threshold | below the threshold | below the threshold | 5.93 | below the threshold | below the threshold | below the threshold | 3.95 | 4.66 | TEEEVQDTRL [CFTR, P13569] | pKd (MAGI2_6, Q86UL8): below the threshold; pKd (DFNB31_2, Q9P202): below the threshold; pKd (GRIP2_7, Q9C0E4): below the threshold; pKd (IL16_3, Q14005): below the threshold; pKd (SCRIB_1, Q14160): 5.42
2 | below the threshold | 3.61 | 4.19 | 4.34 | below the threshold | below the threshold | 3.49 | below the threshold | 3.61 | 3.51 | below the threshold | below the threshold | below the threshold | below the threshold | 3.92 | below the threshold | below the threshold | below the threshold | below the threshold | below the threshold | CNTVTVETVV [MAS1, P04201] | pKd (MAGI2_6, Q86UL8): below the threshold; pKd (DFNB31_2, Q9P202): below the threshold; pKd (GRIP2_7, Q9C0E4): below the threshold; pKd (IL16_3, Q14005): below the threshold; pKd (SCRIB_1, Q14160): below the threshold
3 | 3.71 | below the threshold | below the threshold | 3.87 | below the threshold | below the threshold | 3.78 | 4.17 | 4.09 | below the threshold | below the threshold | below the threshold | below the threshold | 4.14 | 5.37 | 3.64 | 3.52 | 3.59 | 4.4 | below the threshold | RRVRKLPSTTL [RPS6KA1, Q15418] | pKd (MAGI2_6, Q86UL8): below the threshold; pKd (DFNB31_2, Q9P202): below the threshold; pKd (GRIP2_7, Q9C0E4): below the threshold; pKd (IL16_3, Q14005): below the threshold; pKd (SCRIB_1, Q14160): 3.48
